From patent US20120172293A1 (Takeda / Millennium, published 2012)
Starred links: 1 amine or outer side, 2 acyl side, 3 side chain; linkers in the order of their positions; H or OH if unused. Positions of bridges follow the written chain, without caps; N, C: chain ends. Non-standard residues stand in square brackets, D forms with d. No end group written: not given here. Phe(3R-OH) = O=C([C@@H](N[*:1])[C@H](O[*:3])c1ccccc1)[*:2]; tBuAla = CC(C)(C)C[C@H](N)C(=O)O; Cha = N[C@@H](CC1CCCCC1)C(=O)O; dCha = N[C@H](CC1CCCCC1)C(=O)O; hLeu = CC(C)CC[C@H](N)C(=O)O; 4Amb = NCc1ccc(C(=O)O)cc1; Nle = CCCC[C@H](N)C(=O)O; Aib = CC(C)(N)C(=O)O

T1: human Y2 receptor (human, UniProt P49146 1-381)
T1 sequence (looked up): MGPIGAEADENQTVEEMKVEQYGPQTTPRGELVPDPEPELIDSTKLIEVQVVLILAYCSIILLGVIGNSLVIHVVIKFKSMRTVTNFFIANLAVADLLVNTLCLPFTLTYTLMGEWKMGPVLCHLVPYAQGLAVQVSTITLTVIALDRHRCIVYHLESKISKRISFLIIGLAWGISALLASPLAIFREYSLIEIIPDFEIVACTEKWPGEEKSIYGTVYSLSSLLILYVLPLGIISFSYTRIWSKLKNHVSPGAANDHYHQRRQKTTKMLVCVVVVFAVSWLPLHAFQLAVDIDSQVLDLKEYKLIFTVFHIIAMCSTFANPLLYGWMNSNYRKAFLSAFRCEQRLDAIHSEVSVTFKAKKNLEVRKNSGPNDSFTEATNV


Experiments:
human Y2 receptor [1] = biological target: T1, human Y2 receptor; test: cell-based or functional assay
human Y2 receptor [2] = biological target: T1, human Y2 receptor; test: RBA: [125I]-PYY displacement, hY2R/CHO membranes
How it was run: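 Bound radioligand was collected by filtration on PEI-treated GF/C filters, washed with Tris/MgCl₂/NaCl/CHAPS buffer pH 7.4, and counted by scintillation; IC₅₀ values were calculated.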

Row | Binder | GBA EC50 Ratio (vs PYY(3-36)), [35S]GTPγS (human Y2 receptor [1]) [ratio] | IC50 Ratio (vs PYY(3-36)) (human Y2 receptor [2]) [ratio]
1 | [4Amb]RAY[Nle]NLITRQRY-NH2 (N-terminus assumed; SMILES CCCC[C@H](NC(=O)[C@H](Cc1ccc(O)cc1)NC(=O)[C@H](C)NC(=O)[C@H](CCCNC(=N)N)NC(=O)c1ccc(CN)cc1)C(=O)N[C@@H](CC(N)=O)C(=O)N[C@@H](CC(C)C)C(=O)N[C@H](C(=O)N[C@H](C(=O)N[C@@H](CCCNC(=N)N)C(=O)N[C@@H](CCC(N)=O)C(=O)N[C@@H](CCCNC(=N)N)C(=O)N[C@@H](Cc1ccc(O)cc1)C(N)=O)[C@@H](C)O)[C@@H](C)CC, also called compound No. 21) [4-Aminomethylbenzoyl-[Ala26, Nle28, Ile31]-PYY(25-36)] | 3.6 | 4.1
2 | [dR]LRAYINLITRQRY-NH2 (N-terminus assumed; SMILES CC[C@H](C)[C@H](NC(=O)[C@H](Cc1ccc(O)cc1)NC(=O)[C@H](C)NC(=O)[C@H](CCCNC(=N)N)NC(=O)[C@H](CC(C)C)NC(=O)[C@H](N)CCCNC(=N)N)C(=O)N[C@@H](CC(N)=O)C(=O)N[C@@H](CC(C)C)C(=O)N[C@H](C(=O)N[C@H](C(=O)N[C@@H](CCCNC(=N)N)C(=O)N[C@@H](CCC(N)=O)C(=O)N[C@@H](CCCNC(=N)N)C(=O)N[C@@H](Cc1ccc(O)cc1)C(N)=O)[C@@H](C)O)[C@@H](C)CC, also called compound No. 27) [[D-Arg23, Ala26, Ile28,31]-PYY(23-36)] | 3.6 | 4.5
3 | Ac-[Cha]RAYINLITRQRY-NH2 (SMILES CC[C@H](C)[C@H](NC(=O)[C@H](Cc1ccc(O)cc1)NC(=O)[C@H](C)NC(=O)[C@H](CCCNC(=N)N)NC(=O)[C@H](CC1CCCCC1)NC(C)=O)C(=O)N[C@@H](CC(N)=O)C(=O)N[C@@H](CC(C)C)C(=O)N[C@H](C(=O)N[C@H](C(=O)N[C@@H](CCCNC(=N)N)C(=O)N[C@@H](CCC(N)=O)C(=O)N[C@@H](CCCNC(=N)N)C(=O)N[C@@H](Cc1ccc(O)cc1)C(N)=O)[C@@H](C)O)[C@@H](C)CC, also called compound No. 36) [Ac-[Cha24, Ala26, Ile28,31]-PYY(24-36)] | 13 | 17
4 | RYYASLRAYINLITRQRY-NH2 (also called compound No. 2) [[Ala26, Ile28,31]-PYY(19-36)] | 2.1 | 4.9
5 | Ac-[dF]RAYINLITRQRY-NH2 (SMILES CC[C@H](C)[C@H](NC(=O)[C@H](Cc1ccc(O)cc1)NC(=O)[C@H](C)NC(=O)[C@H](CCCNC(=N)N)NC(=O)[C@@H](Cc1ccccc1)NC(C)=O)C(=O)N[C@@H](CC(N)=O)C(=O)N[C@@H](CC(C)C)C(=O)N[C@H](C(=O)N[C@H](C(=O)N[C@@H](CCCNC(=N)N)C(=O)N[C@@H](CCC(N)=O)C(=O)N[C@@H](CCCNC(=N)N)C(=O)N[C@@H](Cc1ccc(O)cc1)C(N)=O)[C@@H](C)O)[C@@H](C)CC, also called compound No. 35) [Ac-[D-Phe24, Ala26, Ile28,31]-PYY(24-36)] | 8.7 | 14
6 | Ac-[dCha]RAYINLITRQRY-NH2 (SMILES CC[C@H](C)[C@H](NC(=O)[C@H](Cc1ccc(O)cc1)NC(=O)[C@H](C)NC(=O)[C@H](CCCNC(=N)N)NC(=O)[C@@H](CC1CCCCC1)NC(C)=O)C(=O)N[C@@H](CC(N)=O)C(=O)N[C@@H](CC(C)C)C(=O)N[C@H](C(=O)N[C@H](C(=O)N[C@@H](CCCNC(=N)N)C(=O)N[C@@H](CCC(N)=O)C(=O)N[C@@H](CCCNC(=N)N)C(=O)N[C@@H](Cc1ccc(O)cc1)C(N)=O)[C@@H](C)O)[C@@H](C)CC, also called compound No. 37) [Ac-[D-Cha24, Ala26, Ile28,31]-PYY(24-36)] | 4.6 | 7.6
7 | Ac-FRAYINLITRQRY-NH2 (also called compound No. 34) [Ac-[Phe24, Ala26, Ile28,31]-PYY(24-36)] | 14 | 25
8 | [dL]RAYINLITRQRY-NH2 (N-terminus assumed; SMILES CC[C@H](C)[C@H](NC(=O)[C@H](Cc1ccc(O)cc1)NC(=O)[C@H](C)NC(=O)[C@H](CCCNC(=N)N)NC(=O)[C@H](N)CC(C)C)C(=O)N[C@@H](CC(N)=O)C(=O)N[C@@H](CC(C)C)C(=O)N[C@H](C(=O)N[C@H](C(=O)N[C@@H](CCCNC(=N)N)C(=O)N[C@@H](CCC(N)=O)C(=O)N[C@@H](CCCNC(=N)N)C(=O)N[C@@H](Cc1ccc(O)cc1)C(N)=O)[C@@H](C)O)[C@@H](C)CC, also called compound No. 24) [[D-Leu24, Ala26, Ile28,31]-PYY(24-36)] | 9.4 | 14

Second part, the binder after the results:

Row | GBA EC50 Ratio (vs PYY(3-36)), [35S]GTPγS (human Y2 receptor [1]) [ratio] | IC50 Ratio (vs PYY(3-36)) (human Y2 receptor [2]) [ratio] | Binder
9 | 10 | 16 | Ac-S[dP]RH[Cha][Cha]NL[Aib]TRQR[Phe(3R-OH)]-NH2 (SMILES CC(=O)N[C@@H](CO)C(=O)N1CCC[C@@H]1C(=O)N[C@@H](CCCNC(=N)N)C(=O)N[C@@H](Cc1c[nH]cn1)C(=O)N[C@@H](CC1CCCCC1)C(=O)N[C@@H](CC1CCCCC1)C(=O)N[C@@H](CC(N)=O)C(=O)N[C@@H](CC(C)C)C(=O)NC(C)(C)C(=O)N[C@H](C(=O)N[C@@H](CCCNC(=N)N)C(=O)N[C@@H](CCC(N)=O)C(=O)N[C@@H](CCCNC(=N)N)C(=O)N[C@H](C(N)=O)[C@H](O)c1ccccc1)[C@@H](C)O, also called compound No. 200) [Ac-[D-Pro24, Cha27,28, Aib31, threo-PhSer36]-PYY(23-36)]
10 | 8.5 | 20 | Ac-S[dP]RH[Cha][Cha]NL[Aib]TRQR[hLeu]-NH2 (SMILES CC(=O)N[C@@H](CO)C(=O)N1CCC[C@@H]1C(=O)N[C@@H](CCCNC(=N)N)C(=O)N[C@@H](Cc1c[nH]cn1)C(=O)N[C@@H](CC1CCCCC1)C(=O)N[C@@H](CC1CCCCC1)C(=O)N[C@@H](CC(N)=O)C(=O)N[C@@H](CC(C)C)C(=O)NC(C)(C)C(=O)N[C@H](C(=O)N[C@@H](CCCNC(=N)N)C(=O)N[C@@H](CCC(N)=O)C(=O)N[C@@H](CCCNC(=N)N)C(=O)N[C@@H](CCC(C)C)C(N)=O)[C@@H](C)O, also called compound No. 199) [Ac-[D-Pro24, Cha27,28, Aib31, homoLeu36]-PYY(23-36)]
11 | 16 | 30 | [4Amb]RHEINLKTRQRY-NH2 (lactam 4-8; N-terminus assumed; SMILES CC[C@H](C)[C@@H]1NC(=O)[C@@H](NC(=O)[C@H](Cc2c[nH]cn2)NC(=O)[C@H](CCCNC(=N)N)NC(=O)c2ccc(CN)cc2)CCC(=O)NCCCC[C@@H](C(=O)N[C@H](C(=O)N[C@@H](CCCNC(=N)N)C(=O)N[C@@H](CCC(N)=O)C(=O)N[C@@H](CCCNC(=N)N)C(=O)N[C@@H](Cc2ccc(O)cc2)C(N)=O)[C@@H](C)O)NC(=O)[C@H](CC(C)C)NC(=O)[C@H](CC(N)=O)NC1=O, also called compound No. 25) [cyclo(27-31)-4-Aminomethylbenzoyl-[Glu27, Ile28, Lys31]-PYY(25-36)]
12 | 12 | 14 | {4‑(((imino(octylamino)methyl)amino)methyl)benzoyl}-RAYINLITRQRY-NH2 (also called compound No. 28) [4-({[imino(octylamino)methyl]amino}methyl)benzoyl-[Ala26, Ile28,31]-PYY(25-36)]
13 | 7.1 | 12 | Ac-S[dP]RH[Cha][Cha]NL[Aib]TRQR[tBuAla]-NH2 (SMILES CC(=O)N[C@@H](CO)C(=O)N1CCC[C@@H]1C(=O)N[C@@H](CCCNC(=N)N)C(=O)N[C@@H](Cc1c[nH]cn1)C(=O)N[C@@H](CC1CCCCC1)C(=O)N[C@@H](CC1CCCCC1)C(=O)N[C@@H](CC(N)=O)C(=O)N[C@@H](CC(C)C)C(=O)NC(C)(C)C(=O)N[C@H](C(=O)N[C@@H](CCCNC(=N)N)C(=O)N[C@@H](CCC(N)=O)C(=O)N[C@@H](CCCNC(=N)N)C(=O)N[C@@H](CC(C)(C)C)C(N)=O)[C@@H](C)O, also called compound No. 198) [Ac-[D-Pro24, Cha27,28, Aib31, Leu(Me)36]-PYY(23-36)]
14 | 25 | 45 | [4Amb]RPYINLITRQRY-NH2 (N-terminus assumed; SMILES CC[C@H](C)[C@H](NC(=O)[C@H](Cc1ccc(O)cc1)NC(=O)[C@@H]1CCCN1C(=O)[C@H](CCCNC(=N)N)NC(=O)c1ccc(CN)cc1)C(=O)N[C@@H](CC(N)=O)C(=O)N[C@@H](CC(C)C)C(=O)N[C@H](C(=O)N[C@H](C(=O)N[C@@H](CCCNC(=N)N)C(=O)N[C@@H](CCC(N)=O)C(=O)N[C@@H](CCCNC(=N)N)C(=O)N[C@@H](Cc1ccc(O)cc1)C(N)=O)[C@@H](C)O)[C@@H](C)CC, also called compound No. 19) [4-Aminomethylbenzoyl-[Pro26, Ile28,31]-PYY(25-36)]
15 | 11 | 18 | [4Amb]RHYKNLIERQRY-NH2 (lactam 5-9; N-terminus assumed; SMILES CC[C@H](C)[C@@H]1NC(=O)[C@H](CC(C)C)NC(=O)[C@H](CC(N)=O)NC(=O)[C@@H](NC(=O)[C@H](Cc2ccc(O)cc2)NC(=O)[C@H](Cc2c[nH]cn2)NC(=O)[C@H](CCCNC(=N)N)NC(=O)c2ccc(CN)cc2)CCCCNC(=O)CC[C@@H](C(=O)N[C@@H](CCCNC(=N)N)C(=O)N[C@@H](CCC(N)=O)C(=O)N[C@@H](CCCNC(=N)N)C(=O)N[C@@H](Cc2ccc(O)cc2)C(N)=O)NC1=O, also called compound No. 26) [cyclo(28-32)-4-Aminomethylbenzoyl-[Lys28, Ile31, Glu32]-PYY(25-36)]
16 | 26 | 52 | Ac-PRAYINLITRQRY-NH2 (also called compound No. 38) [Ac-[Pro24, Ala26, Ile28,31]-PYY(24-36)]
